Paper PMC4395482 (The Journal of Cell Biology, 2015)

Target: the molecule itself
Assay: crystal structure

B1: hSac2 domain of human Sac2 (aa 593–760) (domain or fragment, UniProt Q9Y2H2 593-760, looked up)
chain: RSHQELISQLLQSYMKLLLPDDEKFHGGWALIDCDPSLIDATHRDVDVLLLLSNSAYYVAYYDDEVDKVNQYQRLSLENLEKIEIGPEPTLFGKPKFSCMRLHYRYKEASGYFHTLRAVMRNPEEDGKDTLQCIAEMLQITKQAMGSDLPIIEKKLERKSSKPHEDII
modifications: selenomethionine (selenomethionine protein crystals)
  stoichiometry N: 2
